Assay results reported in the RNAGym collection of RNA variant scans (doi:10.1073/pnas.2313332121).
Fewer inactive variants are shown than the library holds.

B1: TPR 5TU (parent)
chain: GGAUCUUCUCGAUCUAACAAAAAAGACAAAUCUGCCACAAAGCUUGAGAGCAUCUUCGGAUGCAGAGGCGGCAGCCUUCGGUGGCGCGAUAGCGCCAACGUUCUCAACUAUGACACGCAAAACGCGUGCUCCGUUGAAUGGAGUUUAUCAUG

Variants of: B1
Experiment: polymerase ribozyme fitness, log enrichment relative to wild type (log ratio); higher = more active; in vitro selection for triplet polymerase activity
How it was run: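 Input and output libraries were sequenced on Illumina after a single in vitro selection round, run in triplicate on PCR-built, transcribed mutant libraries of each subunit of a heterodimeric triplet polymerase ribozyme. Selection annealed libraries to a biotinylated primer, the partner subunit and triplets, incubated them frozen at −7 °C, then gel-excised extended constructs for streptavidin-bead capture and RT-PCR. Genotypes with ≥10 input reads and ≥1 read per output were kept. Fitness is the logarithm, taken in base 2, of genotype enrichment divided by wild-type enrichment, using inverse-variance-weighted replicate averages.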

Variant	polymerase ribozyme fitness (log ratio)
A29C A39G U139A	≤ -4.2
C27U A37C G59U G92C G117C	-3.65
A26U G92A	-3.86
C27U U44A G46A C54A C116G A147U	≤ -4.2
A26G A41C G94A A115C	-3.45
C27U G50C C87A C105G	≤ -4.2
A28G C57A U61A C76A G88A C93U U102G	≤ -4.2
A26C G50C G71U A73G	≤ -4.2
C27U C118U	-1.44
A28G C38U U61A G67U C85G A98G	-3.98
A26U A52G C85U	-1.69
A26U C85U C105U	-1.82
C27G G58C G86A C105A U144A	≤ -4.2
A26G G88C A91C C93A C116U	≤ -4.2
C27U A40U G59U A107G C116A	≤ -4.2
A26U U56A U101G A115G	-3.42
A26G C27G A40G C57U C85U C118U	-3.9
A26G A37G A40G G58U G65U G74C G88C U101C U151A	≤ -4.2
A26U A40C C76A G92C A121C	≤ -4.2
C27A C93U C116U G126A A147G	≤ -4.2
A26U G59C C103G A106C C132U	≤ -4.2
A28U U61A G74C	≤ -4.2
C27A U55A C76U A98G	≤ -4.2
A29C A37G G65C C75G U77A A97G C118U C123U	≤ -4.2

Variant	polymerase ribozyme fitness (log ratio)
C27G U45G	-3.87
C27U A60U	-1.43
C27U G48A C69A C96A A121G	≤ -4.2
C27G G84A G136U	≤ -4.2
A26C C87U A122G A142G	-3.94
C27G C51U C54A U78A G94C	≤ -4.2
A26U U31G G42C C93G A137G	≤ -4.2
A26C A52C	-3.22
C27U A37U C125U	-3.74
A28U G88A A107G A142C U151A	≤ -4.2
A26C C87U	-1.69
G25U G48C A52G C54G C57A A60G C96G U101G	≤ -4.2
G25U C103G	-3.2
A26G C32G A64G C103A	≤ -4.2
A28U C79G	≤ -4.2
C27G G59U A60C A91U C105U U145C	≤ -4.2
A29C G42U C54G C93G G94C A98U G136A A142G G152U	≤ -4.2
A28C A49U U56A G65A G70C A91U G94C G117C U151A	≤ -4.2
C27G C35G A64U A73G C79A C85G A91U	≤ -4.2
A29C A30U G42U C93U C105G U139G	≤ -4.2
C27U C51U U53A U101G	-3.98
A26C A29U G126U A138C	≤ -4.2
A26U U31C A39U U90C	≤ -4.2
C27U C54U G58A A106G	-0.532

Variant	polymerase ribozyme fitness (log ratio)
A26G C75A G81A G140A U148C	≤ -4.2
A28G U33G G34U G59C U104G C118U	≤ -4.2
A26U A30U G48A	≤ -4.2
A28C C57U U82C C85G U111G A137U	≤ -4.2
A28C C57U G84A C96U G124U	≤ -4.2
A26U G84C U145G	≤ -4.2
A28U G88A G94A C99G C103G U104A A107G	≤ -4.2
C27U A120G C125A	-1.81
A28U A29G A40G C85G U90G U134G	≤ -4.2
C27G C76A	-3.63
A26C U44G A91U U145C	≤ -4.2
C27G C85A U90G	≤ -4.2
A28G U53A G84U G140A	≤ -4.2
A26C A37G A60U U90A G100C G141A C149U	≤ -4.2
A26U A28U G81C U90A	≤ -4.2
A28U C54A G92U C118U G124U C131A A137U	≤ -4.2
A26U A97U A119G	-2.34
A26G C76A	-3.95
A26U A49G U101G A120G A147C	≤ -4.2
A26U A89C C95U U104A A107G	≤ -4.2
A26U A73U G74U C96A	≤ -4.2
A29C G67C A89U G94U	≤ -4.2
A26C U53A G58A	-2.74
A29C A52C G88U	≤ -4.2

Variant	polymerase ribozyme fitness (log ratio)
C27U C75U	-1.25
C27G C36G C85U	≤ -4.2
A26G A28U G42C G59C C96G C105G C116U	-4.04
A28C A39U G48C G70A G84C C93G G140U	≤ -4.2
C27U C35U U53A U56G C57A C93A A113C A122G U146A C149G	≤ -4.2
A28C A52G C76G A91U U146G	≤ -4.2
A26G C35G C57A G81C C87G	≤ -4.2
C27G C75G C93A C103G U134A	≤ -4.2
C27A A29G U33G C35A A60G C93G A97G A120U G133U U134G	≤ -4.2
A28C G58C	≤ -4.2
A26C A60U A107C A115G	≤ -4.2
C27A A60U G133A U135C A150U	≤ -4.2
C27G C32G C36G A73G C93G U135A	-4.18
C27U C72U G88A G94A G152A	-4.19
C27G G67C C85A	≤ -4.2
A26G A29C G50A U90G	≤ -4.2
A28G A49C C76U G94U A150G	≤ -4.2
A26G G42U G48C G50U G84C C87G	≤ -4.2
A26C G94A C131U	-1.51
A28U A37C U139C U151G	≤ -4.2
C27U C32A A39U C75U A91C A121C G126C	≤ -4.2
A26U C93U G117U A137C	≤ -4.2
A28U G59U G74U C85G A113U C114A U127A	≤ -4.2
C27U C93U	-3.3

Variant	polymerase ribozyme fitness (log ratio)
A26C G86A C99U G141C	-3.84
A29C A49C U61A A138C	≤ -4.2
A26C C63U C85A A120U	-3.53
A26G U44G A47C A49C C72G C76G A91C C103G C105G	≤ -4.2
C27U U53A C85G	-3.88
A28G C38A C54G G88C C103A	≤ -4.2
C27U A39U U53A C93U	≤ -4.2
C27U G58A G59C C99U U102G A120C C125U	≤ -4.2
A26U A49C	≤ -4.2
A28U C95A	-3.41
A26U A52U U135A	-2.83
C27G A29C C87G A121U	≤ -4.2
C27A A40G U55A G83C	≤ -4.2
C27A U44A C85A A107C U148C	≤ -4.2
C27U G83A C125U U130G U135G	≤ -4.2
A26U G84A C118A	-3.09
A28U G67C U77A U90C C95U C105U A142G	≤ -4.2
G25U C63G G88C C108U	-3.94
A26C C51U A66G U77A C149G	≤ -4.2
A28C U144G	-4.03
A26G U31A G48A A60C C76G A107C A119U	≤ -4.2
A28U C87A C131G	≤ -4.2
A26U C43G C85G C132U	≤ -4.2
A28U C87U A106U C108U A119C U148C	≤ -4.2

Variant	polymerase ribozyme fitness (log ratio)
A29C C35U U53A C76G G92A C99A A122G G124U	≤ -4.2
C27A C38U G81A G86U A110U	≤ -4.2
A26U C36A G58C A89G G94U A138G	≤ -4.2
C27U U55A C99G A138G	≤ -4.2
C27G A52C U53A A64G C69A U78A C79A C87G G94C C95A A142C	≤ -4.2
A26G C27U G46U G50U C75A	≤ -4.2
C27G U55A A73G U77A C87A A142U	≤ -4.2
A26G G42C C95U A150U	≤ -4.2
C27U C57U G94A C95A G143A	≤ -4.2
G25U G84A	-3.07
A26C C54G A121G	-2.79
A26C C32G G34C U44A A107G C131U U139C U145C	≤ -4.2
A28C U33G G50A C95A U134A	≤ -4.2
A26U C54A G65A A98G	-4.2
A29C G48C C79A A122G G124U U144A U145G G152U	≤ -4.2
A26G A30C G59A G74A G84U	-3.99
G25U G34U A47C A89G	≤ -4.2
G25U U56A G84U C95A C96U A119C G141U U148C C149A	≤ -4.2
A29C C85U	-3.79
C27U A49C G88A U111G	≤ -4.2
C27U A52G G92A C96U G133A	≤ -4.2
A26U G86U	-3.84
A29C A52G C87U G100C A138U U139A A147C	≤ -4.2
A28U C36G C85G G94A C131G	≤ -4.2

Variant	polymerase ribozyme fitness (log ratio)
A26U C125A	-1.8
G25U U55G A73G A120C C123U	-3.39
A26U A40G A41C A49G C51U A52C U90A G92A C95U A97C C118A A137G U151C	≤ -4.2
A28U C85A	-4.11
C27A A119U G133C A137G G140U U144G	≤ -4.2
A26C G68C A122C U135C U139G U145G	≤ -4.2
A26U U31C A52U A73G C87A A107G	≤ -4.2
A28G A41G U45A G94C A97U	-3.76
C27U G68U G74U U77C G80C U104C C116G	≤ -4.2
C27U C76U G83A	-1.55
C27U C76G G84U	≤ -4.2
A26U C35A U104G A150C	≤ -4.2
C27U C85A A91U G143A	≤ -4.2
C27U A64G C75G G86A C105U	-4.19
A28U U33G C43G A47C U55G U56A G84A C87G A106G A107C G133U G140U	≤ -4.2
A26U U33G G92A C95U U134G	≤ -4.2
A26U C75U U148G	≤ -4.2
A26G A73U C85A U151G	≤ -4.2
A26C G59U A89C A113G C132G G141U	≤ -4.2
A28U G42U G59C A64C U78C C87A	≤ -4.2
C27U C51U G83A	-2.56
C27A A28G C43A G58C C95U C105G	≤ -4.2
A28G C32U G50A C85A	≤ -4.2
